The RNAGym collection of RNA variant scans (doi:10.7554/elife.80360)

B1: HDV Ribozyme (parent)
chain: GGCCGGCAUGGUCCCAGCCUCCUCGCUGGCGCCGGCUGGGCAACAUUCCGAGGGGACCGUCCCCUCGGUAAUGGCGAAUGGGACCCA

Variants of: B1
Experiment: self-cleavage, relative activity (ratio to wild type); higher = more cleavage; co-transcriptional

Q: Which self-cleavage does the source give for G5U A70C here?
A: 0.415

Q: Which self-cleavage does the source give for G5A G68U here?
A: 0.146

Q: With G5U C33U as the variant, how does the self-cleavage read?
A: 0.615

Q: For G5C A45G, which self-cleavage is on record?
A: 0.0875

Q: Which self-cleavage does the source give for G5C A45U here?
A: 0.131

Q: With G5A C64A as the variant, how does the self-cleavage read?
A: 0.198

Q: With G5A C64U as the variant, how does the self-cleavage read?
A: 0.359

Q: Which self-cleavage does the source give for G5A C64G here?
A: 0.237

Q: Which self-cleavage does the source give for G5A G38C here?
A: 0.208

Q: With G5U G39U as the variant, how does the self-cleavage read?
A: 0.136

Q: With G5U G76U as the variant, how does the self-cleavage read?
A: 0.529

Q: With G5C U72A as the variant, how does the self-cleavage read?
A: 0.095

Q: Which self-cleavage does the source give for G5C U72G here?
A: 0.0831

Q: Which self-cleavage does the source give for G5C A83G here?
A: 0.0519

Q: With G5C A83C as the variant, how does the self-cleavage read?
A: 0

Q: For G5U G82C, which self-cleavage is on record?
A: 0

Q: For G5A G76C, which self-cleavage is on record?
A: 0.0959

Q: With G5A G76U as the variant, how does the self-cleavage read?
A: 0.148

Q: For G5A C32U, which self-cleavage is on record?
A: 0.198

Q: With G5A C32G as the variant, how does the self-cleavage read?
A: 0.248

Q: For G5A C32A, which self-cleavage is on record?
A: 0

Q: For G5U C21A, which self-cleavage is on record?
A: 0

Q: Which self-cleavage does the source give for G5C G11U here?
A: 0.115

Q: With G5A G73U as the variant, how does the self-cleavage read?
A: 0.108

Q: Which self-cleavage does the source give for G5A G73C here?
A: 0.268

Q: For G5A G73A, which self-cleavage is on record?
A: 0

Q: With G5C A70C as the variant, how does the self-cleavage read?
A: 0.158

Q: For G5C A70G, which self-cleavage is on record?
A: 0.158

Q: For G5C A70U, which self-cleavage is on record?
A: 0

Q: Which self-cleavage does the source give for G5U U9A here?
A: 0.578

Q: With G5U C30G as the variant, how does the self-cleavage read?
A: 0

Q: With G5U C30U as the variant, how does the self-cleavage read?
A: 0.237

Q: Which self-cleavage does the source give for G5C C26A here?
A: 0.508

Q: For G5C G40C, which self-cleavage is on record?
A: 0.256

Q: For G5C G40A, which self-cleavage is on record?
A: 0.208

Q: With G5A G50C as the variant, how does the self-cleavage read?
A: 0.225

Q: For G5U G68A, which self-cleavage is on record?
A: 0.697

Q: For G5U G68U, which self-cleavage is on record?
A: 0.268

Q: With G5A C58U as the variant, how does the self-cleavage read?
A: 0.252

Q: With G5A C58G as the variant, how does the self-cleavage read?
A: 0.119

Q: With G5A C58A as the variant, how does the self-cleavage read?
A: 0.253

Q: For G5C C32A, which self-cleavage is on record?
A: 0.0615

Q: With G5U G25A as the variant, how does the self-cleavage read?
A: 0.0346

Q: With G5C G6C as the variant, how does the self-cleavage read?
A: 0.151

Q: With G5C G6A as the variant, how does the self-cleavage read?
A: 0

Q: Which self-cleavage does the source give for G5U U69C here?
A: 0.277

Q: For G5U U69A, which self-cleavage is on record?
A: 0.262

Q: Which self-cleavage does the source give for G5U C86A here?
A: 0.755

Q: With G5U C86U as the variant, how does the self-cleavage read?
A: 0.554

Q: Which self-cleavage does the source give for G5C C86A here?
A: 0.166

Q: For G5A C30U, which self-cleavage is on record?
A: 0.0692

Q: With G5C U12C as the variant, how does the self-cleavage read?
A: 0

Q: With G5A G54U as the variant, how does the self-cleavage read?
A: 0.113

Q: For G5A G54C, which self-cleavage is on record?
A: 0.225

Q: For G5A U79A, which self-cleavage is on record?
A: 0.192

Q: Which self-cleavage does the source give for G5U G34C here?
A: 0

Q: With G5C C64U as the variant, how does the self-cleavage read?
A: 0.332

Q: With G5A G40U as the variant, how does the self-cleavage read?
A: 0.119

Q: With G5U C64A as the variant, how does the self-cleavage read?
A: 0.499

Q: For G5C G50C, which self-cleavage is on record?
A: 0.151

Q: For G5U U20G, which self-cleavage is on record?
A: 0.111

Q: For G5A G74U, which self-cleavage is on record?
A: 0.0326

Q: Which self-cleavage does the source give for G5A G74A here?
A: 0.0326

Q: Which self-cleavage does the source give for G5C A71G here?
A: 0.0923

Q: Which self-cleavage does the source give for G5C A71C here?
A: 0.0639

Q: Which self-cleavage does the source give for G5C A71U here?
A: 0.18

Q: Which self-cleavage does the source give for G5C C84G here?
A: 0.332

Q: Which self-cleavage does the source give for G5C A43G here?
A: 0

Q: With G5C A43C as the variant, how does the self-cleavage read?
A: 0

Q: Which self-cleavage does the source give for G5C G35C here?
A: 0.147

Q: For G5A U46C, which self-cleavage is on record?
A: 0.185

Q: With G5A U46A as the variant, how does the self-cleavage read?
A: 0

Q: Which self-cleavage does the source give for G5U C62U here?
A: 0.467

Q: With G5U C62A as the variant, how does the self-cleavage read?
A: 0.369

Q: For G5A C13U, which self-cleavage is on record?
A: 0.107

Q: For G5A C13G, which self-cleavage is on record?
A: 0

Q: With G5C A87G as the variant, how does the self-cleavage read?
A: 0.124

Q: With G5C C33U as the variant, how does the self-cleavage read?
A: 0.386

Q: For G5C G29C, which self-cleavage is on record?
A: 0.0615

Q: With G5C C19U as the variant, how does the self-cleavage read?
A: 0.0536

Q: For G5C C19G, which self-cleavage is on record?
A: 0

Q: Which self-cleavage does the source give for G5C C19A here?
A: 0

Q: With G5U C58A as the variant, how does the self-cleavage read?
A: 0.277

Q: Which self-cleavage does the source give for G5U A78G here?
A: 0.332

Q: With G5C U37A as the variant, how does the self-cleavage read?
A: 0.104

Q: With G5U A16G as the variant, how does the self-cleavage read?
A: 0.175

Q: With G5A C41A as the variant, how does the self-cleavage read?
A: 0.0615

Q: Which self-cleavage does the source give for G5A C41G here?
A: 0

Q: With G5U C44G as the variant, how does the self-cleavage read?
A: 0.217

Q: For G5U C44A, which self-cleavage is on record?
A: 0.119

Q: Which self-cleavage does the source give for G5A G55C here?
A: 0.104

Q: For G5A G31C, which self-cleavage is on record?
A: 0.095

Q: With G5U U60G as the variant, how does the self-cleavage read?
A: 0.151

Q: Which self-cleavage does the source give for G5A U23A here?
A: 0.342

Q: Which self-cleavage does the source give for G5A U23C here?
A: 0.0573

Q: For G5A C14U, which self-cleavage is on record?
A: 0.119

Q: For G5U C13U, which self-cleavage is on record?
A: 0.115

Q: With G5U C13A as the variant, how does the self-cleavage read?
A: 0.217

Q: For G5U C13G, which self-cleavage is on record?
A: 0.0978

Q: For G5U C15G, which self-cleavage is on record?
A: 0

Q: For G5U C26G, which self-cleavage is on record?
A: 0.615

Q: With G5U C26U as the variant, how does the self-cleavage read?
A: 0.864

Q: With G5U G35A as the variant, how does the self-cleavage read?
A: 0.156

Q: With G5U G35U as the variant, how does the self-cleavage read?
A: 0.108

Q: For G5C G80A, which self-cleavage is on record?
A: 0.256

Q: For G5A C19U, which self-cleavage is on record?
A: 0

Q: For G5A C19A, which self-cleavage is on record?
A: 0.0723

Q: Which self-cleavage does the source give for G5U C24A here?
A: 0.158

Q: Which self-cleavage does the source give for G5U C36G here?
A: 0.128

Q: Which self-cleavage does the source give for G5U C36U here?
A: 0.104

Q: Which self-cleavage does the source give for G5A G67C here?
A: 0.162

Q: Which self-cleavage does the source give for G5C C24U here?
A: 0.252

Q: For G5C C24G, which self-cleavage is on record?
A: 0

Q: With G5U G31C as the variant, how does the self-cleavage read?
A: 0.0723

Q: For G5U G31A, which self-cleavage is on record?
A: 0.135

Q: With G5U G31U as the variant, how does the self-cleavage read?
A: 0.277

Q: Which self-cleavage does the source give for G5C C41U here?
A: 0.277

Q: With G5C C41G as the variant, how does the self-cleavage read?
A: 0

Q: For G5C C57G, which self-cleavage is on record?
A: 0.35

Q: For G5C C57A, which self-cleavage is on record?
A: 0.111

Q: Which self-cleavage does the source give for G5A U47C here?
A: 0.0615

Q: For G5U C41A, which self-cleavage is on record?
A: 0.172

Q: Which self-cleavage does the source give for G5A G17U here?
A: 0.123

Q: Which self-cleavage does the source give for G5A C84U here?
A: 0.117

Q: For G5A C84A, which self-cleavage is on record?
A: 0.172

Q: For G5U C32U, which self-cleavage is on record?
A: 0.104

Q: With G5C C36G as the variant, how does the self-cleavage read?
A: 0.0978

Q: With G5C C36A as the variant, how does the self-cleavage read?
A: 0.0489

Q: For G5C G28C, which self-cleavage is on record?
A: 0.208

Q: For G5C G28U, which self-cleavage is on record?
A: 0

Q: Which self-cleavage does the source give for G5C G28A here?
A: 0.104

Q: With G5C C49U as the variant, how does the self-cleavage read?
A: 0.0755

Q: For G5C C49A, which self-cleavage is on record?
A: 0.178

Q: For G5C G67A, which self-cleavage is on record?
A: 0.353

Q: With G5C G67C as the variant, how does the self-cleavage read?
A: 0.252

Q: Which self-cleavage does the source give for G5C G67U here?
A: 0.248

Q: With G5C C30G as the variant, how does the self-cleavage read?
A: 0.0875

Q: With G5C C30A as the variant, how does the self-cleavage read?
A: 0

Q: For G5C A78G, which self-cleavage is on record?
A: 0

Q: Which self-cleavage does the source give for G5C A78C here?
A: 0.0615

Q: Which self-cleavage does the source give for G5U G55A here?
A: 0.467

Q: Which self-cleavage does the source give for G5A C61U here?
A: 0.0326

Q: With G5A C61A as the variant, how does the self-cleavage read?
A: 0.0573

Q: With G5A C61G as the variant, how does the self-cleavage read?
A: 0.166

Q: For G5C C18A, which self-cleavage is on record?
A: 0.0639

Q: Which self-cleavage does the source give for G5C C18G here?
A: 0.262

Q: Which self-cleavage does the source give for G5U G17C here?
A: 0

Q: For G5U G17A, which self-cleavage is on record?
A: 0.189

Q: With G5C C21G as the variant, how does the self-cleavage read?
A: 0.125

Q: With G5C C21U as the variant, how does the self-cleavage read?
A: 0.0554

Q: Which self-cleavage does the source give for G5C C75G here?
A: 0.123

Q: With G5C C75U as the variant, how does the self-cleavage read?
A: 0

Q: For G5A G39C, which self-cleavage is on record?
A: 0.119

Q: Which self-cleavage does the source give for G5C U69G here?
A: 0.111

Q: With G5C U69A as the variant, how does the self-cleavage read?
A: 0.111

Q: With G5A C62U as the variant, how does the self-cleavage read?
A: 0.16

Q: With G5A C62A as the variant, how does the self-cleavage read?
A: 0

Q: Which self-cleavage does the source give for G5A C15A here?
A: 0.162

Q: For G5A U60C, which self-cleavage is on record?
A: 0.353

Q: For G5A U12A, which self-cleavage is on record?
A: 0

Q: Which self-cleavage does the source give for G5A U12G here?
A: 0.145

Q: For G5A U12C, which self-cleavage is on record?
A: 0.0615

Q: With G5U G11C as the variant, how does the self-cleavage read?
A: 0

Q: With G5U A83U as the variant, how does the self-cleavage read?
A: 0

Q: For G5U A83C, which self-cleavage is on record?
A: 0

Q: For G5C A51U, which self-cleavage is on record?
A: 0.298

Q: Which self-cleavage does the source give for G5C A51C here?
A: 0.293
